Consider 3 molecules from article PMC3378324 (Febs Letters, 2012).

The target in test [1] is T1, Human Alix recombinant construct ALIX(V+PRR), residues 362-760 (human, UniProt Q8WUM4 362-760).
T1 sequence (looked up): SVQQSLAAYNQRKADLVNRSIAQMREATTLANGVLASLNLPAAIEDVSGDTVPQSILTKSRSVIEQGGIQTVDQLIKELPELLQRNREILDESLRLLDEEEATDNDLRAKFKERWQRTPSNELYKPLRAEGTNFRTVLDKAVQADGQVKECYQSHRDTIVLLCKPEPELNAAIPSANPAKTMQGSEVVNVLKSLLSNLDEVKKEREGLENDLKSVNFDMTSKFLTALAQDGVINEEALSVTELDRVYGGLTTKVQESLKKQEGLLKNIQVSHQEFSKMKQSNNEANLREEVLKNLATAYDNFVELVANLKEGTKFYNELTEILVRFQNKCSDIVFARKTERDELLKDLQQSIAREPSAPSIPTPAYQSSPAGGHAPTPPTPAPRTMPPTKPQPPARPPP
Kind of test: pull-down.

Test [2] concerns the target T1, Human Alix recombinant construct …. Briefly: NMR titration.

B1: Fyn(R96I)-SH3-GST (domain or fragment)
chain: not shown
On to B1, for which the binding result in test [1] is “binds”.

B2: Fyn(R96I)-SH3, 6xHis C-terminal fusion (domain or fragment)
chain: not shown
B2: the binding result in test [2] was “binds”.

B3: Hck-SH3-GST (domain or fragment)
chain: not shown
Regarding B3, the binding result in test [1] is given as “binds”.
